{"source": "a protein production outcome set (Wang et al. 2014)"}
{"test": "label from the status in PepcDB records"}
{"sequence": "MKIRHVSHQAWLLFLVALLVLGSGLGLRDPHPADEPRFALVAKQMVDSGEWLFPHRGNELYSDKPPMLMWLQAAFYTLFGNLKVAFLLPSLLAALGTLVCVYDLGRRLWTRRIGLYAAYALLFTFHFTYQAKRAQIDALVVFFITFANYGLLRHLLFGGHWRWWVLGWFAAGLGTITKGVGALALLIVLPAAAASLAGWPRVRVHVRDVRFWLGPLGFLVAVSLWLVPMVMTALSAQQPEYRAYLNDILLRQTFGRYTKSWDHAQPPWYFLQVMLVMWIPTLLALPWALPAWWRRMRRRDPRYLLPLAWCVLLLVFFSIPSGKRDVYMLPALPMVCLALAPLLPGLLRKRACSRLLLAFGVLLVLVLAVFGAGLLIRSDWQARMMEGTTLILEDVRVIAWGGIAVASWGVFSLLAFSQRRPVVAVFSVLTTLWLVFGLVLMPVVNDSSSARGVMMIAGKRIGPAAELGLVAWKEQNLLMADRSVATFGFLVPWDEQLRRGIAWQVQRPRQRWLLVQEAAMFGCINRSASVFVGSSNRRAWWLVPAWAVHGACIMTQAEHDRLSKQ", "protein production": "failed"}
{"sequence": "MKIRKLTNEEIKGACAFAVNIYNIAIRGCFRTLDCHRYFDEYMDADRLTDEERTGALVVFGAFDSNVLCGVCGMTNEGHITMLYVHPQYLRRGIGKKLLERVRIYARMQLKLMQVSVNAMPAYTAEYFMHVGFKSAYQGGFCNGQGDMYVPMTAKSIYQVEYTPRHIADKTFIAISVGFTCLVFVSGVIYAVCAGLTP", "protein production": "failed"}
{"sequence": "MKIRNACKEDAQQLIAIYASYVEKTAITFEYQVPSLEEFEERIEKTKQKFPYLVAEEEGILQGYAYASVYYNHAAYDWTVELSIYIKEEARGKHIGSQLYASLERNLQEAGFVNLLVCIALPNNASLTFHKKHGYEQVAHFKKVGYKFDKWYDIVWMQKRLLD", "protein production": "failed"}
{"sequence": "MKIRSADASDLDSLLRLNYQIGVMHFENAPESFVKPSSEEKEFLLKALNDQSRLFLVAEISGDVVGFVTATVTQNEAIPFLVKTPICRVGTIVVDENARVSGIGTQLMARCNDWAKSQGAEQIRLEVMAFNKSAQSFYVKLGFEEQSKTMWKTVN", "protein production": "failed"}
{"sequence": "MKISPLCPSCLLGRVYYEAKLVTDDEDLISQCVDESLKILAENYSSAPINAHLATRIHRRVYEILGVEDPYAEVKARANEVARQVLPLAKEIVEGSDDPFKTAVIVSIVGNNFDYGVQGHKVVEEEFRDFLKRKVQEGLKINDTERIKELSSGKVVYLTDNAGEIFFDTLLMKEIKRRCEKLTAVVRGRPIISDATIEDARLARVDKIADELLTNGKGAIGIIMDELPDETRKALEEADLIVAKGMANYECLSDGSLKPIAFLLTAKCEPVARDIGVNVGDMVAKVVE", "protein production": "not failed"}
{"sequence": "MKISVIISNYNYARYLSRAINSVLAQTHSDIEIVIVDDGSTDNSRDVITQLQEQAPDKIKPIFQANQGQGGAFNAGFAAATGEVVAFLDADDVWKPHKLQRIVEVFQTSDVVGVMHHLDIIDGNDKTIDQASTQGPKLSEDLASVILQTGNAWCFPPTSGLAYRREVLEKVFPIDPVKWRIWADGCIIYCTAFLGKIKTLQENLAYYRIHGANNHMSAASATSEQEAKSQAGIEMTNQYINDFLVRIGYGARVDLSRNLQYRRTKYYQRSQWDLREVWGISRLILGWPFYSGQERAYYLARFLFKSGKFLLRSDVHTESTTI", "protein production": "failed"}
{"sequence": "MKISVITINYNNGEQLEATIQSVVSNVTVLRELLGEKAEYIVIDGGSVDCSVSVLQKYSEYISYWISEKDKGIYHAMNKGISVAQGEYCFFLNSGDTFYEDDTLKKALLFLKEDFVCGNAVLKYAGGINEWSAPEIVNTLFFMQRFSVCHQSLFIRTELLKSHPYNETLMIVADYEQMFYEIAVNHRSYKKIDLTICYYGCDGVSSDHEKADAEKRSVINEFRYLGYIEPDELWNVVSKLKIGTRKYRLLLSLAKCLTSSPKYWVRLEHHHHHH", "protein production": "not failed"}
{"sequence": "MKISVPTYPFARERYWISVPEMKTSTVNHILHPLVHRNTSDFTEQRFSSVFTGTEFFLSDHVVQGQKILPGVAYLEMAREAAEKAAGDLDGEQRVVSLKDIVWVRPITIESEPKEIHIGLFPEDNGDISFDIYSSSEHKEEALTIHCQGRAVISDEAETSILNLSSIQTECSLDTVTSEQCYAAFRKIGLDYGEGYQGIEKVYVGKDQLLAKISLPAFLKNDKQHFALHPSLMDSAFHATVGFIVSSVNAAGQAQTLSLPFALQEVDIFSPCPEKIWSYIRYSSDSLEHHHHHH", "protein production": "failed"}
{"sequence": "MKITDISGKIETLVDSLRDMSPTRVRSSFSDEHVSENDDERSSWIALHPSALDMFEQIMRDAEGKQIIMFLDYDGTLSLITEDHDRAYITDEMREVVKEVATYFKTAIISGRSTDKVQSFVKLTGIHYAGSHGMDIKGPTNTDQSNQEEVMFQPASDYLPMIDEVVNVLKEKTKSIPGATVEHNKFCLTVHFRRVDETGWAALAEQVRLVLIDYPKLRLTQGRKVLELRPSIKWDKGKALEFLLNSLGIAESKDVLPVYIGDDRTDEDAFKVLCERGQGFGIIVSKTIKETYASYSLQDPSQVKEFLERLVKWKKQTLGE", "protein production": "failed"}
{"sequence": "MKITLIIPTYNAGSIWPNVLDAIKQQTIYPDKLIVIDSGSKDETVLLASDLKNISIFNIDSKDFNHGGTRNLAVTKTLDADVIIFLTQDAILADSDAIKNLVYYFSDPLIAAVCGRQLPHKDANPLAVHARNFNYSSKSIVKSKADIEKFGIKTVFMSNSFAAYRRSVFEELSGFPEHTILAEDMFMAAKMIQAGYKVAYCAEAVVRHSHNYTPREEFQRYFDTGVFHACSPWIQRDLGGAGGEGFRFVKSEIQFLLKNAPFWIPRALLTTFAKFLGYKLGKHWQSLPLSTCRYFSMYKSYWNNIQYSSSKEIKLEHHHHHH", "protein production": "failed"}
{"sequence": "MKIVVNNQSTLAAELMIVAQENLQKLVEQTKCPNSKALLDRRIFKAKSGEVLPLLHGDKIVILLGLGLRQDFIASEYDKIIAKAAEQLKKLAIKEISVDIDYAFENDNVKQFTLDTVRALISETYVFDQLKTEKENYSLEQIELVYSGDQDIEDSAKIGSAIACGQNYAKDLQNLPANICTTDYMLNEARELTSKYATFSLDYLDQDAMAELGMGCALAVGRGSYMSNYTVCMEYKGGNEGDAPIVLVGKGLVFDNGGICIKQAAGMDSMKMDMGGVAAVMGTMKAIAMLNLPVNVVGVMGLAENAVDARSYRPGDVLKSMKGITVEVSNTDAEGRLVLCDTLTYIGKYKPKAVIDLATLTGAMIISLGDAYSGMFANSDKLANSLEQAANASNDLIWRLPLHKPYLKKIESKVADMDNCGRDRSAGSIVAALFLSKFTEDYEWAHLDIAGSAMGDFASCKASGRPVPLLVHYLISQAK", "protein production": "not failed"}
{"sequence": "MKIWTSEHVFDHPWETVTTAAMQKYPNPMNPSVVGVDVLDRHIDPSGKLHSHRLLSTEWGLPSIVKSLIGAARTKTYVQEHSVVDPVEKTMELKSTNISFTNMVSVDERLIYKPHPQDPEKTVLTQEAIITVKGVSLSSYLEGLMASTISSNASKGREAMEWVIHKLNAEIEELTASARGTIRTPMAAAAFAEK", "protein production": "failed"}
{"sequence": "MKIYHKFLLYQNKLLKPYVRILLGLVEALTYLASLLLIVGVVYEHGFPLSPVEVQQIQILYKAVWIIFLIDVTLHISLEYRNTKKQYRRLAWILSVLLYLTLVPVIFHRPEEEGAILQVWEFLHGKFYHLILLLVFSLLNLSNGLVRLLGRRTNPSLILAVSFMAIILIGTGLLMLPRCTVNGITWVDSLFTATSAVCVTGLVPVDVSTTFTTSGLVVIILLIQIGGLGVMTLTSFFAMFFMGNTSIYNQLVVRDMVSSNSLGSLLSTLLYILGFTLVIEGIGMVSIWFSIHDTLGMNLEEELAFAAFHSISAFCNAGFSTLSGNLGNSMVMTNHNWLFISVSLLIILGGIGFPILVNFKDIVLYHLRHVWTFVRTRKLERHKMPHLYNLNTKIVLIMTFLLLLIGTLAILAFEWNASFAGMSVADKWTQAFFNATCPRTAGFSSVDLASLSVQTLLVYLFLMWVGGGSQSTAGGVKVNAFAVVVLNLVAVLRGSERVEVFGRELSHDSIRRSNATVVMSLGVLFLFIFILSILEPKASLLALTFECVSALSTVGSSLNLTPQLCDASKLLVSLLMFIGRVGLITLMLGIVKQKKNTKYRYPSDNIIIN", "protein production": "failed"}
{"sequence": "MKIYLVGGAVRDALLGLPVKDKDWVVVGATPQEMLDAGYQQVGRDFPVFLHPQTHEEYALARTERKSGSGYTGFTCYAAPDVTLEADLQRRDLTINALARDDAGQIIDPYHGRRDLEARLLRHVSPAFGEDPLRVLRVARFAARYAHLSFRIADETLALMREMTAAGELEHLTPERVWKETENALTTRNPQVYFQVLRDCGALRVLFPEIDALFGVPAPAKWHPEIDTGVHTLMTLSMAAMLSPQLDVRFATLCHDLGKGLTPKNLWPRHHGHGPAGVKLVEQLCQRLRVPNDLRDLAKLVAEYHDLIHTFPILQPKTIVKLFDAIDAWRKPQRVEQIALTSEADVRGRTGFEASDYPQGRWLREAWQVAQAVPTKEVVEAGFKGIEIREELTKRRIAAVANWKEKRCPNPAS", "protein production": "failed"}
{"sequence": "MKKALISTLFGVSLAFAKPYTIDKANSSVWFEVKHFTFNETRGAFDNFDGKIDLEPNTKMLSVFEGNIDVKSVNTRDRKRDNHLKTADFFDVVKYPKGSFKMTKYEDGKIYGDLTLRGVTKPVVLEAKIQAPLQNPMNKKEFMVLQAEGKINRKDFGIGKTFSDAVVGDEVKIELKLEAYAQ", "protein production": "failed"}
{"sequence": "MKKCFELTPCLLAFLCITSCVEDVDNERSKGMFSASQSGFSTIEVYDLGPLNKIDLSIAKAGLEDTGGTVTFSVEQSLLDSLNNADGTSYQLLPPECYTIENATYSVSPGGDRRVTGGSLVYDPHKIYNLCGFDELKYVLPLRVSSTGTPMNSDRTATLYGFIVKEAIVRLASTGGDFVVEGGTTTSPMNLDTEISFENEWDLTTSFATKGADYVDNYNSANSTYYIPLPSDFYTLPDVTIAKGKTTGGSAISLLGETLPPGNYLLPVSLGGLSGQGDASINIDKETVANYFVIKQGGPINRDHWTVTANTEEKTGEVSAAYPHNGQTISLIDGEINTFWHSKWQGGEVAPPYEIILDMGKENSVSQLGLIARQNALTSMNLEIYAGDDGETWNLIGKYFFDGSIKTEQMVPVKACDARWIRIYIPTLGSGSSVGHLAEIYVYGTDK", "protein production": "failed"}
{"sequence": "MKKEIASHLLEIGAVFLQPNDPFTWSSGMKSPIYCDNRLTLSYPKVRQTIAAGLEELIKEHFPTVEVIAGTATAGIAHAAWVSDRMDLPMCYVRSKAKGHGKGNQIEGKAEKGQKVVVVEDLISTGGSAITCVEALREAGCEVLGIVSIFTYELEAGKEKLEAANVASYSLSDYSALTEVAAEKGIIGQAETKKLQEWRKNPADEAWITA", "protein production": "not failed"}
{"sequence": "MKKFFKLKENKTTVRTEVLAGITTFFAMSYILFVNPSILSQTGMPSQGVFLATIIGSIAGTLMMGLYANIPYAMAPGMGLNAFFTYTVVFSLGYTWQEALAMVFICGIISIVITLTRVRRMIIDEIPDSLKKAISAGIGIFLTYIGLKNAGLLNFAIDPGTYSVSGKGAAKGLASITANSSATPSLVNFNNPAVLVAVIGIIITAFFIIKNIKGGVILSIIVTTVIALLAGVVDLSKIDFSANNPVAAVKDLGTIFGAALGNKGLGALFSDAGRIPEVLMTILAFALTDIFDNVGTLIGTGAKAGIFDVTSESTSSGLQNKMDKALFSDMVGTTVGAVAGTSNVTTFVESAAGIGAGGRTGLTAVVVALLFAVSSFFSPLLAIVPTQATAAVLLIVGIMMLSSLKDIEWSDMSQAIPAFFATVFMGLAYSITQGIATGFLFYTFSKLIKKEAKDIHPIIWVLDVLFILNFISLAVL", "protein production": "failed"}
{"sequence": "MKKFILIMVLGSALFTGGAIYDGIDNQDMTQPTIHFWEKNPMKLNLYAKGQCTYYVFDRIRQDGNMISNRWGDAKYWANEASKEGYKVNDNPSVGSILQYPKGQHGHVAYVDKVNHDGSLTVFDMNYRKPYEVTKRTVYEYQVDEFNYIHPKKNQSENA", "protein production": "failed"}
